Results as given in the supplement of paper PMC9732359.
± gives the uncertainty stated by the source.

Experiment: protein stability index of a GFP-peptide fusion (yeast GPS) (PSI 1-4); higher = more stable; sorted into four equal gates, so the index is relative within each strain
Method in brief: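 Tiled 17-residue yeast protein peptides were fused downstream of GFP in a plasmid that also expresses Cherry, and the pooled library was carried in yeast. Mid-log cultures in leucine-free medium were sorted into four equal gates by GFP/Cherry fluorescence ratio, and plasmids from each gate were PCR-amplified and Illumina-sequenced, with reads assigned to strains by barcodes. The protein stability index for each peptide was each gate's read frequency times its gate number, summed.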

Sequence	protein stability index (doa10∆)	protein stability index (pdr5∆)	protein stability index (san1∆)	protein stability index (ubr1∆)
FAESPFFDKTSNNQVIK [MED6]	3.49 ± 0.081	2.92 ± 0.096	2.71 ± 0.076	2.96 ± 0.069
LRIGRIEDVTPVPSDST [RPS14B]	2.91 ± 0.037	2.98 ± 0.043	2.78 ± 0.04	2.92 ± 0.037
SHAIRLGNGVACDPSEI [RGR1]	1.52 ± 0.088	1.64 ± 0.089	2.91 ± 0.17	2.16 ± 0.15
HEDEKLIPTIFRYITTW [PRP8]	2.6 ± 0.06	2.25 ± 0.048	1.9 ± 0.051	2.23 ± 0.033
KRNGSTLEQKVNLENPI [FAS1]	2.2 ± 0.098	2.37 ± 0.12	2.21 ± 0.11	3.09 ± 0.089
EDFQVLRLGRGINPNTF [YDL088C/ASM4]	3.29 ± 0.11	3.45 ± 0.19	3.06 ± 0.11	3.52 ± 0.064
MDALYEKIWFAISKENL [SIR3]	2.21 ± 0.06	1.95 ± 0.052	1.51 ± 0.088	1.27 ± 0.047
AEMEADSLASELTLAEQ [SMC4]			2.94 ± 0.15	3.39 ± 0.26
MELSPTYQTERFTKFSD [YDL116W/NUP84]	3.09 ± 0.13	2.74 ± 0.17		2.79 ± 0.22
IPGEYVTYALSGYVRSR [RPS21A]	2.18 ± 0.29		2.61 ± 0.21	2.92 ± 0.16
KFFIMIVKGNIIDEIKC [POP4]	1.32 ± 0.055	1.47 ± 0.055	1.49 ± 0.094	1.66 ± 0.056
KLKEYLDLVARTATLSN [YDL116W/NUP84]	2.63 ± 0.23	2.88 ± 0.16	2.99 ± 0.1	2.74 ± 0.15
GQLVELYVPRKCSATNR [RPS21A]	2.46 ± 0.2	1.32 ± 0.19	1.13 ± 0.22	1.38 ± 0.069
LSRGYTCPGLSLTDVAF [ECM29]	3.24 ± 0.12	3.19 ± 0.084	2.29 ± 0.11	2.68 ± 0.12
DEGTALSRLGLKRYCCR [RPB10]	3.38 ± 0.11	3.23 ± 0.15	3.53 ± 0.079	2.79 ± 0.12
DVHNGYILRYLHANGAS [COB]	2.83 ± 0.096	2.37 ± 0.093	1.93 ± 0.11	2.5 ± 0.079
SKYFIIDSFFLYVLPSF [YMR129W/POM152]	1.55 ± 0.045	1.65 ± 0.035	1.75 ± 0.06	1.23 ± 0.028
SLADNEIALKGLESLLN [YCS4]	2.81 ± 0.056	2.5 ± 0.067	2.68 ± 0.075	2.94 ± 0.073
EKGPQVCAKLFGNIQKV [RPO21]	2.63 ± 0.08	2.29 ± 0.057	2.29 ± 0.079	2.09 ± 0.06
KSNDSEGDFLKSIIGKL [POP1]	1.28 ± 0.12	2.91 ± 0.088	1.93 ± 0.11	1.3 ± 0.15
PRYFSEAINGFKDETIS [SIR3]	2.77 ± 0.057	2.87 ± 0.054	2.46 ± 0.11	2.84 ± 0.048
VITLAEYEKRNHGGSLG [SRP68]	3.42 ± 0.11	3.06 ± 0.13	3.28 ± 0.074	3.55 ± 0.14
VILQSDLEEAYATQVKT [RPT3]	2.2 ± 0.1	2.57 ± 0.069	2.3 ± 0.083	2.53 ± 0.068
QRDAVTLFCCLLRSRLA [RPO21]	1.78 ± 0.045	1.92 ± 0.044	1.85 ± 0.057	1.98 ± 0.041
QYGYSGSSAGMNGRSLT [SNF6]	3.14 ± 0.07	3.11 ± 0.061	3.17 ± 0.046	3.1 ± 0.042
SEFDSRVKAMEVDEKPT [RPT5]	2.77 ± 0.11	2.76 ± 0.089	3.08 ± 0.14	2.97 ± 0.062
LQKSSKSMITSEGEQKS [YAR002W/NUP60]	2.84 ± 0.044	2.97 ± 0.047	2.85 ± 0.04	3.06 ± 0.046

Sequence	protein stability index (doa10∆)	protein stability index (pdr5∆)	protein stability index (san1∆)	protein stability index (ubr1∆)
NPIDIKRRFGELMDRTG [RPP1]	3.08 ± 0.12	3.19 ± 0.18	2.26 ± 0.26	2.9 ± 0.059
APMYILDEVDAALDLSH [SMC2]	2.94 ± 0.29	2.85 ± 0.21	2.92 ± 0.23	3 ± 0.073
TGDVLLIQDLLHRLTPK [RPN1]	3.12 ± 0.07	3.03 ± 0.061	3.01 ± 0.062	2.8 ± 0.059
GLDKFSNIDIRVRVTGG [RPS16A]	1.51 ± 0.082	1.74 ± 0.072	1.52 ± 0.22	1.54 ± 0.055
ETIENVKLQMIKFGGLI [ECM29]	3.53 ± 0.1	3.37 ± 0.17	3.18 ± 0.11	3.26 ± 0.07
QHLQFNGSSDASSLRFG [YDL088C/ASM4]	2.24 ± 0.055	2.3 ± 0.049	1.99 ± 0.076	1.83 ± 0.038
GKDCKLQNLQRIIRKKI [RRI2]	2.98 ± 0.092	3.51 ± 0.14	3.14 ± 0.096	3.05 ± 0.13
KAEKTLKSTKHSISEAE [SMC4]	2.57 ± 0.068	1.99 ± 0.058	1.92 ± 0.063	2.5 ± 0.044
GARVFGALKGASDGGLY [RPL5]		3.34 ± 0.17		3.11 ± 0.19
DDEGSFAQENSELAVAT [SRB6]	3.08 ± 0.065	3.25 ± 0.075	3.08 ± 0.054	3.3 ± 0.054
VRIMKAKRNLPHTTLVN [CDC53]	1.9 ± 0.093	2.23 ± 0.07	1.53 ± 0.16	1.77 ± 0.072
QDVLKGSSASSRKAHGL [POP1]	3.27 ± 0.062	3.06 ± 0.064	3.1 ± 0.059	3.14 ± 0.067
MTKTITVAHIQYDFKAV [RPN14]	2.42 ± 0.083	3.09 ± 0.095	2.4 ± 0.063	2.71 ± 0.043
TFSPSGKLGQIDYALTA [PRE8]	2.61 ± 0.14	2.26 ± 0.092	2.67 ± 0.12	2.85 ± 0.064
SLIEDFVDGIANSKKST [SRB7]	3.29 ± 0.14	3.35 ± 0.092	3.03 ± 0.062	3.04 ± 0.062
IYYTPAFFHLFASLRVL [YJL039C/NUP192]	1.73 ± 0.08	1.71 ± 0.081	1.43 ± 0.13	1.75 ± 0.083
LQYGWKVERHIMDNDPV [RPO21]	1.19 ± 0.069	1.21 ± 0.12	1.37 ± 0.19	1.24 ± 0.098
PPDIHPNLGPQLWLNSS [GRR1]	3.28 ± 0.089	3.36 ± 0.089	3.21 ± 0.066	3.14 ± 0.067
GHPMTKSVYETPKITAA [SEC65]	2.83 ± 0.17	2.63 ± 0.084	2.03 ± 0.24	1.91 ± 0.062
NLDIAKDLIRTDEALFE [MED4]	3.44 ± 0.22	3.29 ± 0.19	2.46 ± 0.28	3.31 ± 0.24
PQNGNINNNINIPQQQQ [GAL11]	3.32 ± 0.095	3.02 ± 0.12	3.21 ± 0.082	2.97 ± 0.077
NKRLCDEIATIQSKRLR [RPS17A]	2.75 ± 0.081	2.94 ± 0.063	3.1 ± 0.046	3.22 ± 0.071
IYRYDEMSNKVLKVDKR [BRR2]	2.97 ± 0.042	3.09 ± 0.051	2.96 ± 0.038	2.84 ± 0.047
IVNGTEKVILVQEQLSK [RET1]	1.54 ± 0.13	2.22 ± 0.057	1.53 ± 0.11	2.29 ± 0.088
VEFCRNINSTDKSIDTS [YML103C/NUP188]	3.08 ± 0.11	2.93 ± 0.091	3.39 ± 0.097	3.12 ± 0.053
LNAIILKLEKLNTNRTF [SMC3]	2.19 ± 0.047	2.31 ± 0.051	2.24 ± 0.09	2.76 ± 0.048
FLLHNSEIIDTNTSKQF [SRB8]	2.83 ± 0.086	3.06 ± 0.069	2.85 ± 0.055	2.81 ± 0.044
